The values below come from patent US6716960B2, “Mch3, a novel apoptotic protease, nucleic acids encoding and methods of use” (Idun Pharmaceuticals, Inc., priority 1995, dated 2004).

Read-outs that look alike come from different tables or passages of the source. Bounds are passed on as bounds.

Test [1] concerns the target T1, CPP32 (Homo sapiens, UniProt P42574).
T1 construct: CPP32 is cleaved at Asp28 and Asp175 to generate two polypeptides of molecular masses of 17 kDa (p17) and 12 kDa (p12); GST (N, cleaved yes); made in house; host or cells: E. coli; bacterial lysates
T1 sequence (P42574 29-175 limits assumed): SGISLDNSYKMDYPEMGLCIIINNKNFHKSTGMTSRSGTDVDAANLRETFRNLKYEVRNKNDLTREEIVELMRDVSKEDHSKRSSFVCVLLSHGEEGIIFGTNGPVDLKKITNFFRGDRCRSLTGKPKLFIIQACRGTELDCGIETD
T1 sequence (P42574 176-277 limits assumed): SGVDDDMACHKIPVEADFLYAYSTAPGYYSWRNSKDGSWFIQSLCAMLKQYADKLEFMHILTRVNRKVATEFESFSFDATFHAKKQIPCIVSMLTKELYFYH
The experiment in a line: Continuous fluorometric assay of recombinant CPP32 with DEVD-AMC substrate. It counts as biochemical. The note with it: for Km: recombinant CPP32, bacterial lysate, ICE buffer pH 7.5, 24-25° C., substrate = label.

The next test has as its target T2, Mch3α (Homo sapiens, UniProt P55210).
T2 construct: This assay employs Mch3 polypeptide expressed in an active, processed form recombinantly in E. coli; becomes active following proteolytic cleavage into two subunits of approximately 17 kD (p17) and 12 kD (p12); GST (N, cleaved yes); made in house; host or cells: E. coli (DH5α), pGEX-2T; bacterial lysates
T2 sequence (P55210 24-198 limits assumed): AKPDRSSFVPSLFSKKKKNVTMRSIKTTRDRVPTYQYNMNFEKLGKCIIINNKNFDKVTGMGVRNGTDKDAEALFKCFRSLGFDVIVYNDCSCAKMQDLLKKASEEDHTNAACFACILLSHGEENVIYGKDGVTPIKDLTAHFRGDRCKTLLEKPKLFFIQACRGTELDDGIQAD
T2 sequence (P55210 207-303 limits assumed): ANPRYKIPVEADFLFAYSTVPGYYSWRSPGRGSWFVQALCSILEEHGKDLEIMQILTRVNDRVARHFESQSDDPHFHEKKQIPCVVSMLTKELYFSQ
The experiment in a line: Continuous fluorometric assay of recombinant Mch3α with DEVD-AMC substrate. It counts as biochemical. As for the experimental part:
The kinetic properties of the bacterially expressed recombinant Mch3α and CPP32 were determined using the tetrapeptide substate DEVD-AMC in a continuous fluorometric assay. The DEVD-AMC substrate is the poly(ADP-ribose)polymerase (PARP) cleavage site P1-P4 tetrapeptide (Nicholson et al., Nature 376:37-43 (1995)). Briefly, activity of Mch3α and CPP32 was measured using bacterial lysates in ICE buffer (25 mM HEPES, 1 mM EDTA, 5 mM DTT, 0.10% CHAPS, 10% sucrose, pH 7.5) at room temperature (24-25° C.).

In test [2] the target is T1, CPP32. The settings on record: purified human CPP32, reported by Nicholson et al.; cited from earlier work.
For the next test, the system named is Sf9 cells. The experiment in a line: Induction of apoptosis in Sf9 cells infected with recombinant baculoviruses. The note with it: for Induction of apoptosis: expressed separately in Sf9 cells.

One may read the Km as the substrate concentration at which the rate is half of its maximum. In the case of “YVADamc: YVAD tetrapeptide amc substrate listed in Table I”, the Km in the test with CPP32 [1] was greater than 500 µM.

A word on the Ki: it is a dissociation constant, usually derived from enzyme kinetics or from competition with a known ligand. Regarding `CC(=O)N[C@@H](Cc1ccc(O)cc1)C(=O)N[C@H](C(=O)N[C@@H](C)C(=O)N[C@H](C=O)CC(=O)O)C(C)C` [YVADaldehyde, YVAD-CHO], the results for the inhibition constant (Ki) at CPP32 [1] and on Mch3α were 8.5 µM and greater than 10 µM, respectively. For the molecule `CC(=O)N[C@@H](CC(=O)O)C(=O)N[C@@H](CCC(=O)O)C(=O)N[C@H](C(=O)N[C@H](C=O)CC(=O)O)C(C)C` [DEVDaldehyde, DEVD-CHO], at Mch3α, the inhibition constant (Ki) was found to be 0.0018 µM.

In the case of DEVD-AMC [DEVDamc], the Km in the test with CPP32 [1] was 13 µM; in the test with CPP32 [2], 9.7 ± 1 µM; with Mch3α (bacterial lysate, ICE buffer pH 7.5, 24-25° C., substrate = label), 51 µM.

B1: Mch3α: full length apoptotic cysteine protease, 303 amino acids (SEQ ID NO: 2), expressed from recombinant baculovirus (protein)
chain: MADDQGCIEEQGVEDSANEDSVDAKPDRSSFVPSLFSKKKKNVTMRSIKTTRDRVPTYQYNMNFEKLGKCIIINNKNFDKVTGMGVRNGTDKDAEALFKCFRSLGFDVIVYNDCSCAKMQDLLKKASEEDHTNAACFACILLSHGEENVIYGKDGVTPIKDLTAHFRGDRCKTLLEKPKLFFIQACRGTELDDGIQADSGPINDTDANPRYKIPVEADFLFAYSTVPGYYSWRSPGRGSWFVQALCSILEEHGKDLEIMQILTRVNDRVARHFESQSDDPHFHEKKQIPCVVSMLTKELYFSQ
In the case of B1, in the test with Sf9 cells (expression in Sf9 cells, 42-48 h postinfection), the Cells undergoing apoptosis result is “approximately 50%”.

B2: truncated Mch3α (amino acids 199-303): truncated Mch3α that encodes only the p12 subunit (protein)
chain: SGPINDTDANPRYKIPVEADFLFAYSTVPGYYSWRSPGRGSWFVQALCSILEEHGKDLEIMQILTRVNDRVARHFESQSDDPHFHEKKQIPCVVSMLTKELYFSQ
In the case of B2, in the test with Sf9 cells, the Induction of apoptosis entry is recorded as “unable to induce apoptosis”.

B3: truncated Mch3α (amino acids 1-198): truncated Mch3α that encodes only the p20 subunit (protein)
chain: MADDQGCIEEQGVEDSANEDSVDAKPDRSSFVPSLFSKKKKNVTMRSIKTTRDRVPTYQYNMNFEKLGKCIIINNKNFDKVTGMGVRNGTDKDAEALFKCFRSLGFDVIVYNDCSCAKMQDLLKKASEEDHTNAACFACILLSHGEENVIYGKDGVTPIKDLTAHFRGDRCKTLLEKPKLFFIQACRGTELDDGIQAD
With B3, the Induction of apoptosis entry with Sf9 cells was “unable to induce apoptosis”.
